# In article doi:10.1101/684480:
# How the values were obtained:
# [1] = molecular target: BCR-ABL Y177F (human) (UniProt P11274); test: native gel or EMSA
# [2] = molecular target: kinase-dead BCR-ABL (K271H) (human) (UniProt P11274); test: native gel or EMSA
# [3] = molecular target: BCR-ABL Y177F (human) (UniProt P11274); test: co-IP
# [4] = molecular target: BCR-ABL with deleted DH-PH domains (human) (UniProt P11274); test: co-IP
# [5] = molecular target: BCR-ABL with deleted FABD domain (human) (UniProt P11274); test: co-IP
# [6] = molecular target: BCR-ABL with deleted IDR (human) (UniProt P11274); test: co-IP
# [7] = molecular target: BCR-ABL with deleted PH domain (human) (UniProt P11274); test: co-IP
# [8] = molecular target: p190 BCR-ABL (human) (UniProt P11274); test: proximity ligation
molecule,measurement,setting,value
GRB2 of NIH3T3 cells (from UniProt Q60631 1-217) (natural protein),percent of GRB2 associated,[1],30%
same,percent of GRB2 associated,[2],30%
"p85a-PI3K, transfected (from UniProt P27986 1-724) (natural protein)",decrease of binding against BCR-ABL,[3],50%
same,decrease of binding against BCR-ABL,[4],80%
same,decrease of binding against BCR-ABL,[5],40%
same,decrease of binding against BCR-ABL,[6],70%
"SHC1, endogenous (natural protein) MDLLPPKPKYNPLRNESLSSLEEGASGSTPPEELPSPSASSLGPILPPLPGDDSPTTLCSFFPRMSNLRLANPAGGRPGSKGEPGRAADDGEGIVGAAMPDSGPLPLLQDMNKLSGGGGRRTRVEGGQLGGEEWTRHGSFVNKPTRGWLHPNDKVMGPGVSYLVRYMGCVEVLQSMRALDFNTRTQVTREAISLVCEAVPGAKGATRRRKPCSRPLSSILGRSNLKFAGMPITLTVSTSSLNLMAADCKQIIANHHMQSISFASGGDPDTAEYVAYVAKDPVNQRACHILECPEGLAQDVISTIGQAFELRFKQYLRNPPKLVTPHDRMAGFDGSAWDEEEEEPPDHQYYNDFPGKEPPLGGVVDMRLREGAAPGAARPTAPNAQTPSHLGATLPVGQPVGGDPEVRKQMPPPPPCPGRELFDDPSYVNVQNLDKARQAVGGAGPPNPAINGSAPRDLFDMKPFEDALRVPPPPQSVSMAEQLRGEPWFHGKLSRREAEALLQLNGDFLVRESTTTPGQYVLTGLQSGQPKHLLLVDPEGVVRTKDHRFESVSHLISYHMDNHLPIISAGSELCLQQPVERKL",decrease of the interaction against BCR-ABL,[7],70%
V5-tagged SHIP2 (enzyme) MASACGAPGPGGALGSQAPSWYHRDLSRAAAEELLARAGRDGSFLVRDSESVAGAFALCVLYQKHVHTYRILPDGEDFLAVQTSQGVPVRRFQTLGELIGLYAQPNQGLVCALLLPVEGEREPDPPDDRDASDGEDEKPPLPPRSGSTSISAPTGPSSPLPAPETPTAPAAESAPNGLSTVSHDYLKGSYGLDLEAVRGGASHLPHLTRTLATSCRRLHSEVDKVLSGLEILSKVFDQQSSPMVTRLLQQQNLPQTGEQELESLVLKLSVLKDFLSGIQKKALKALQDMSSTAPPAPQPSTRKAKTIPVQAFEVKLDVTLGDLTKIGKSQKFTLSVDVEGGRLVLLRRQRDSQEDWTTFTHDRIRQLIKSQRVQNKLGVVFEKEKDRTQRKDFIFVSARKREAFCQLLQLMKNKHSKQDEPDMISVFIGTWNMGSVPPPKNVTSWFTSKGLGKTLDEVTVTIPHDIYVFGTQENSVGDREWLDLLRGGLKELTDLDYRPIAMQSLWNIKVAVLVKPEHENRISHVSTSSVKTGIANTLGNKGAVGVSFMFNGTSFGFVNCHLTSGNEKTARRNQNYLDILRLLSLGDRQLNAFDISLRFTHLFWFGDLNYRLDMDIQEILNYISRKEFEPLLRVDQLNLEREKHKVFLRFSEEEISFPPTYRYERGSRDTYAWHKQKPTGVRTNVPSWCDRILWKSYPETHIICNSYGCTDDIVTSDHSPVFGTFEVGVTSQFISKKGLSKTSDQAYIEFESIEAIVKTASRTKFFIEFYSTCLEEYKKSFENDAQSSDNINFLKVQWSSRQLPTLKPILADIEYLQDQHLLLTVKSMDGYESYGECVVALKSMIGSTAQQFLTFLSHRGEETGNIRGSMKVRVPTERLGTRERLYEWISIDKDEAGAKSKAPSVSRGSQEPRSGSRKPAFTEASCPLSRLFEEPEKPPPTGRPPAPPRAAPREEPLTPRLKPEGAPEPEGVAAPPPKNSFNNPAYYVLEGVPHQLLPPEPPSPARAPVPSATKNKVAITVPAPQLGHHRHPRVGEGSSSDEESGGTLPPPDFPPPPLPDSAIFLPPSLDPLPGPVVRGRGGAEARGPPPPKAHPRPPLPPGPSPASTFLGEVASGDDRSCSVLQMAKTLSEVDYAPAGPARSALLPGPLELQPPRGLPSDYGRPLSFPPPRIRESIQEDLAEEAPCLQGGRASGLGEAGMSAWLRAIGLERYEEGLVHNGWDDLEFLSDITEEDLEEAGVQDPAHKRLLLDTLQLSK,"interaction preserved with nilotinib, against active BCR-ABL",[8],> 50%
